Measured values from US20120302492A1.

Target: GPIIb/IIIa protein (UniProt P08514)
Assay: equal mix of wt and RGD1 phage bound to GPIIb/IIIa-coated plate, eluted, phagemid DNA analysis

B1: phage wtCD59 (CD59-gIII fusion protein displayed on phage) (protein, human, UniProt P13987 26-102, looked up, not shown: small tags and cut ends; large carriers)
chain: LQCYNCPNPTADCKTAVNCSSDFDACLITKAGLQVYNKCWKFEHCNFNDVTTRLRENELTYYCCKKDLCNFNEQLEN
Q: B1 was tested. Which clones recovered among 12 picked after binding of an equal phage mix did it give?
A: 1 clones of 12
